Consider 21 variants from the RNAGym collection of RNA variant scans (doi:10.1073/pnas.2313332121).

B1: TPR t1 (parent)
chain: GACCAAUCUGCCCUCAGAGCUCGAGAACAUCUUCGGAUGCAGAGGAGGCAGGCUUCGGUGGCGCGAUAGCGCCAACGUCCUCAACCUCCAAUGCAUCCCACCACAUGAUGAUGCCUGAAGAGCCUUGGUUUUUUG

Variants of B1 are the subject of the series. The series is described as follows: polymerase ribozyme fitness, log enrichment relative to wild type (log ratio); higher = more active; in vitro selection for triplet polymerase activity. In a few lines: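 Each subunit of a heterodimeric triplet polymerase ribozyme was represented by a PCR-built, transcribed mutant library that underwent triplicate single-round in vitro selection with frozen incubation at −7 °C. Extended constructs were recovered by gel excision, streptavidin-bead capture and RT-PCR, and Illumina sequencing of input and output libraries kept genotypes with ≥10 input reads and ≥1 read per output. Fitness is the logarithm of genotype enrichment relative to wild-type enrichment, from inverse-variance-weighted replicate averages, with a logarithm base of 2.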
For the variant GACCAAUCUGCCCUCAGAGCUCGAGAACAUCUUCGGAUGCAAAUGAGGCAGGAUACGGUGGCGCGAUAGCGCCAACGUCCUCAACCUCCAAUGCAUCCCACCACAUGAUGAUGCCUGAAGAGCCUUCGUUUUUUG [G42A G44U C53A U55A G127C], the “polymerase ribozyme fitness (log ratio)” value is -3.14.

For GACCAAUCUGCCCUCAGAGCUCGAGAACAUCUUCGGAUGCAAAGGAGGCUGGCUUCGGUGGCGCGAUAGCGCAAACGUCCUCAACCUCCAAUGCAUCCCACCACAUGAUGAUGCCUGAAGAGUCUUGGUUUUUUG [G42A A50U C73A C123U], the “polymerase ribozyme fitness (log ratio)” value was -2.52.

Consider GACCAAUCUGCCCUCAGAGCUCGAGAACAUCUUCGGAUGCUGAGGAGGCAGGCUUCGGUGGCGCUAUAGCGCCAACGUCCUCAACCUCCAAUGCAUCCCACCACAUGAUGAUGCCUGAAGAGCCUUGGUUUUUUG [A41U G65U], for which the “polymerase ribozyme fitness (log ratio)” value is -6.

On to GACCAAUCUGCCCUCAGAGCUCGAGAACAUCUUCGGAUGCUGAGGAGGCAGGCUUCGGUGGCGCGAUAGCGCCAACGUCCUCAACCUCCAAUGCAUCCCACCACAUGAUGAUACCUGAAGAGCCUUGGUUUUUUG [A41U G113A], for which the “polymerase ribozyme fitness (log ratio)” value was -1.81.

As for GACCAAUCUGCCCUCAGAGCUCGAGAACAUCUUCGGAUGCAAAGGAGGCUGGCUUCGGUGGCGCGAUAGCGCCAACGUCCUCAACCUCCAAUGCAUCCCACCACAUGAUGAUGCCUGAAGAGCCUUGGUUUUUUG [G42A A50U], the “polymerase ribozyme fitness (log ratio)” value was -4.57.

Consider GACCAAUCUGCCCUCAGAGCUCGAGAACAUCUUCGGAUGCAAAGGAGGCAGGCUUCGGUGGCGCGAUAGCGCCAACGUCCUCAACCUCCAAUGCCUCCCACCACAUGAUGAUGCCUGAAGAGCCUUGGUUUUUUG [G42A A95C], for which the “polymerase ribozyme fitness (log ratio)” value was -1.94.

Consider GACCAAUCUGCCCUCAGAGCUCGAGAACAUCUUCGGAUGCAAAGGAGGCAGGCUUCGGUGGUGCGAUAGCGCCAACGUCCUCAACCUCCAAUGCAUCCCACCACAUGAUGAUGCCUGAAGAGCCUUGGUUUUUUG [G42A C62U], for which the “polymerase ribozyme fitness (log ratio)” value is -2.15.

Turning to GACCAAUCUGCCCUCAGAGCUCGAGAACAUCUUCGGAUGCAAAGGAGGCAGGCUUCGGUGGCGCGAUAGCGACAACGUCCUCAACCUCCAAUGCAUCCCACCACAUGAUGAUGUCUGAAGAGCCUUGGUUUUUUG [G42A C72A C114U], the “polymerase ribozyme fitness (log ratio)” value is -2.37.

As for GACCAAUCUGCCCUCAGAGCUCGAGAACAUCUUCGGAUGCUGAGGAGGCAGGCUUCGGUGGCGCGAUAGCCCCAACGUCCUCAACCUCCAAUGCAUCCCACCACAUGAUGAUGCCUUAAGAGCCUUGGUUUUUUG [A41U G71C G117U], the “polymerase ribozyme fitness (log ratio)” value is -5.03.

Consider GACCAAUCUGCCCUCAGAGCUCGAGAACAUCUUCGGAUGCAAAGGAGGCAGGCUUCGGUGGCGCGAUAGCGCCAACGUCCUCAAUCUCCAAUGCAUCCCACCACAUGAUGAUGCCUGAAGAGCCUUGGUUUUUUG [G42A C85U], for which the “polymerase ribozyme fitness (log ratio)” value was -2.41.

Regarding GACCAAUCUGCCCUCAGAGCUCGAGAACAUCUUCGGAUGCAAAGGAGGCAGGCUUCGGUGGCGCGAUAGAGCCAACGUCCUCAUCCUCCAACGCAACCCACGACAUGAUGAUGCCUGAAGAGCGUUGGUUUUUUG [G42A C70A A84U U92C U96A C102G C124G], the “polymerase ribozyme fitness (log ratio)” value was -6.77.

As for GACCAAUCUGCCCUCAGAGCUCGAGAACAUCUUCGGAUGCAAAGGAGGCAGGCUUCGGUGGCGUGAUAGCGCCAACGUCCUCAACCUCCAAUGCAUCCCACCACAUGAAGAUGCCUGAAGAGCCUUGGUUUUUUG [G42A C64U U109A], the “polymerase ribozyme fitness (log ratio)” value is -6.32.

Turning to GACCAAUCUGCCCUCAGAGCUCGAGAACAUCUUCGGAUGCUGAGGAGGCAGGCUUCGGUGGCGCGAUAGCGCCAACGUCCUCAACCUCCAAUGCAGCCCACCACAUGAUGAUGCCUGAAGAGCCUUGGUUUUUUG [A41U U96G], the “polymerase ribozyme fitness (log ratio)” value is -2.51.

Take GACCAAUCUGCCCUCAGAGCUCGAGAACAUCUUCGGAUGCAAAGGAGGCAGGCUUCGGUGGCGCGAUAGAGCCAACGUCCUCAACCUGCAAUGCAUCCCACCACAUGAUGAUGCCUGAAGAGCCUUGGUUUUUUG [G42A C70A C88G]: the “polymerase ribozyme fitness (log ratio)” value is -6.71.

Take GACCAAUCUGCCCUCAGAGCUCGAGAACAUCUUCGGAUGCAAAGCAGGCAGGCUUCGGUGGCGCGAUAUCGCCAACGUCCUCAACCUCCAAUGCAUCCCACCACAUGAUGAUGCCUGAAGAGUCUUGGUUUUUUG [G42A G45C G69U C123U]: the “polymerase ribozyme fitness (log ratio)” value is -0.482.

On to GACCAAUCUGCCCUCAGAGCUCGAGAACAUCUUCGGAUGCAAAGGAGGCAGGCUUCGGUGGCGCGAUAGCGGCAACGUCCUCAACCUGCAAUGCAUCCCACCACAUGAUGAUGCCUGAAGAGCCUUGGUUUUUUG [G42A C72G C88G], for which the “polymerase ribozyme fitness (log ratio)” value is -3.92.

Regarding GACCAAUCUGCCCUCAGAGCUCGAGAACAUCUUCGGAUGCAACGGAGGCAGGCUUCGGUGGCGCGAUAGCGCCAACGUCCUCAACCUCCAAUGCAUCCCACCACAUGAUGAUGCCUGAAGAGCCUUGGUUUUUUG [G42A A43C], the “polymerase ribozyme fitness (log ratio)” value is -2.41.

GACCAAUCUGCCCUCAGAGCUCGAGAACAUCUUCGGAUGCAAAGGAGGCAGGCUUCGGUGGCGCGAUAGCGCUAACGUCCUCAACCUCCAAUGCAUCCCACCACAUGAUGAUGCCUGAAGAGCCUUGGUUUUUUG [G42A C73U]: the “polymerase ribozyme fitness (log ratio)” value was -1.61.

GACCAAUCUGCCCUCAGAGCUCGAGAACAUCUUCGGAUGCAAAGGAGGCAGGCUUCGGUGGCGCGAUAGCGCCAACGUCCUCAACCUCCAAUGCAUCCCACCACAUGAUGAUGCCUGAAGAGCCUUGGUUUUUUG [G42A]: the “polymerase ribozyme fitness (log ratio)” value was -1.69.

With GACCAAUCUGCCCUCAGAGCUCGAGAACAUCUUCGGAUGCUGAGGAGGCAGGCUUCGGUGGCGCGAUAGCGCCAACAUCCUCAACCUCCAAUGCAUCCCACCACAUGAUGAUGCCCGAAGAGCCUUGGCUUUUUG [A41U G77A U116C U129C], the “polymerase ribozyme fitness (log ratio)” value is -3.98.

Turning to GACCAAUCUGCCCUCAGAGCUCGAGAACAUCUUCGGAUGCUGAGGAGGCAGGCUUCGGUGGCGCGAUACCGCCAACGUCCUCAACCUCCAAUGCAUCCCACCACAUGAUGAUGCCUGAAGAGCCUUGGUUUUUUG [A41U G69C], the “polymerase ribozyme fitness (log ratio)” value was -4.05.
